Data from patent publication US6559282B1, “Artificial T helper cell epitopes as immune stimulators for synthetic peptide immunogens including immunogenic LHRH peptides” (United Biomedical, Inc., priority 1998, dated 2003).
Marks after values point to notes of the source that are not given here.

Legend:
LHRH = biological target: T1, LHRH (Rattus norvegicus, UniProt P07490); experiment: Serum testosterone RIA in rats immunized with LHRH peptide immunogens (immunocastration); assay type: in vivo, Sprague-Dawley rats, male; conditions: i.m., serum at weeks 10 or 12
T1 construct: from tissue; host or cells: living male rats (in vivo, endogenous hormone)
Method: B. Protocols for immunization. The LHRH peptide immunogens shown in Tables 2a and 2b were evaluated on groups of 5 to 10 rats as specified by the experimental immunization protocol outlined below and by serological assays for determination of immunogenicity on serum samples:
Blood was collected and processed into serum, and stored prior to ELISA and radioimunoassay (RIA) for determination of serum testosterone values.
D. Determination of immunogen efficacy. Immunogens were evaluated for efficacy by RIA for serum testosterone values. Serum testosterone levels were measured using an RIA kit from Diagnostic Products (Los Angeles, Calif.) according to manufacturer's instructions. The lower detection limit for testosterone ranged from 0.01 to 0.03 nmol/L. Each sample was analyzed in duplicate. Serum samples were scored as being at castration level when the testosterone level was below limits of detection and as “near castration” at <0.1 nmol/L. Results were verified by comparison to testosterone levels in serum from mechanically castrated rats.
E. Results. […] The efficacy of the anti-peptide antibody responses, consequential to the cross-reactivity to natural LHRH, was established by determining serum testosterone levels. Those results are summarized in the right columns of Tables 2a and 2b as numbers of animals having castration level serum testosterone per total animals in the group.

artificial Th epitope = experiment: ELISA of immune rat sera on the Th epitope peptide (antibody specificity); assay type: in vivo, rats; conditions: 25 μg doses on Alum at 0 and 3 weeks; sera diluted 1:100; ELISA on respective Th peptide
[1] = system: LHRH peptide (SEQ ID NO:77); experiment: ELISA of immune rat sera on LHRH peptide-coated plates (immunogenicity); assay type: in vivo, Sprague-Dawley rats, male; conditions: 25 μg doses on Alum at 0 and 3 weeks; ELISA peptide SEQ ID NO: 28
Method: C. Method for determination of immunogenicity. Antibody activities were determined by ELISA (enzyme-linked immunosorbent assays) using 96-well flat bottom microtiter plates which were coated with the LHRH peptide (SEQ ID NO:77) as immunosorbent. Aliquots (100 μL) of the peptide immunogen solution at a concentration of 5 μg/mL were incubated for 1 hour at 37° C. The plates were blocked by another incubation at 37° C. for 1 hour with a 3% gelatin/PBS solution. The blocked plates were then dried and used for the assay. Aliquots (100 μL) of the test immune sera, starting with a 1:100 dilution in a sample dilution buffer and ten-fold serial dilutions thereafter, were added to the peptide coated plates. The plates were incubated for 1 hour at 37° C.
The plates were washed six times with 0.05% Tween® in PBS. 100 μL of horseradish peroxidase labeled goat-anti-rat IgG antibody was added at appropriate dilutions in conjugate dilution buffer (Phosphate buffer containing,0.5M NaCl, and normal goat serum). The plates were incubated for 1 hour at 37° C. before being washed as above. Aliquots (100 μL) of o-phenylenediamine substrate solution were then added. […] The A492 nm of the contents of each well was read in a plate reader. ELISA titers were calculated based on linear regression analysis of the absorbances, with cutoff A492 nm set at 0.5. […]

Substance | no. castrated (animals having castration level serum testosterone per total animals in the group) (LHRH; 25 μg/dose, Alum (0,3 wpi)) | further results
29 (KKKFFFFTKFFTFPVSFD) [compound 29] |  | no. castrated (animals having castration level serum testosterone per total animals in the group) (LHRH; 400 μg/dose, Alum (0,3,6 wpi)): 5/5; no. castrated (animals having castration level serum testosterone per total animals in the group) (LHRH; 400 μg/dose, IFA (0,3,6 wpi)): 8/10
30 (KKKLFLLTKLLTLPFSLD) [compound 30] |  | no. castrated (animals having castration level serum testosterone per total animals in the group) (LHRH; 400 μg/dose, Alum (0,3,6 wpi)): 2/5; no. castrated (animals having castration level serum testosterone per total animals in the group) (LHRH; 400 μg/dose, IFA (0,3,6 wpi)): 9/10
32 (KKKIITITRIITIITTI) [compound 32] | 1/6 | 
33 (KKKMMTMTRMITMITTID) [compound 33] | 5/5 | 
34 (FITMDTKFLLASTHIL) [compound 34] | 1/8 | no. castrated (animals having castration level serum testosterone per total animals in the group) (LHRH; 100 μg/dose, IFA (0,3,6 wpi)): 4/6
35 (KKKFITMDTKFLLASTHIL) [compound 35] | 2/6 | 
37 (DLSDLKGLLLHKLDGLGGEHWSYGLRPG) [compound 37] | 0/6 | 
38 (EISEIRGIIIHRIEGIGGEHWSYGLRPG) [compound 38] | 5/6 | 
39 (DVSDVKGVVVHKVDGVGGEHWSYGLRPG) [compound 39] | 3/6 | 
40 (DFSDFKGFFFHKFDGFGGEHWSYGLRPG) [compound 40] | 4/8 | 
41 (ISEIKGVIVHKIEGIGGEHWSYGLRPG) [compound 41] | 6/6 | Th Reactivity: number of animals with anti-Th reactivity >0.100 A490/total animals immunized (artificial Th epitope): 0/6^c; LHRH Reactivity: number of animals with anti-LHRH titers >1:1000/total animals immunized [1]: 6/6
42 (MTEIRTVIVTRMETMGGEHWSYGLRPG) [compound 42] | 6/6 | 
43 (LSEIKGVIVHKLEGVGGEHWSYGLRPG) [compound 43] | 14/14 | no. castrated (animals having castration level serum testosterone per total animals in the group) (LHRH; 100 μg/dose, IFA (0,3,6 wpi)): 6/6
47 (MSEIKGVIVHKLEGMGGEHWSYGLRPG) [compound 47] | 2/6 | 
48 (LTEMRTVIVTRMETVGGEHWSYGLRPG) [compound 48] | 1/6 | 
54 (ISMTEIRTVIVTRMETMLFGGEHWSYGLRPG) [compound 54] | 0/8 | 
